Where a chain is given by its changes, count along the chain named.
T1: GRIP1_4, Q9Y3R0
T1 sequence (Q9Y3R0 467-571, limits assumed, looked up): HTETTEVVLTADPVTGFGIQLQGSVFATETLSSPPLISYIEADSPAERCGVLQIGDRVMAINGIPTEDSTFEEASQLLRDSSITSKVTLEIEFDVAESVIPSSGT

T2: GRIP1_7, Q9Y3R0
T2 sequence (Q9Y3R0 999-1096, limits assumed, looked up): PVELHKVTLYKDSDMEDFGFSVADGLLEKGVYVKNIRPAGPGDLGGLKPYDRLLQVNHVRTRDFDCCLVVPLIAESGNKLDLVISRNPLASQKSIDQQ

T3: LIN7B, Q9HAP6
T3 sequence (Q9HAP6 88-185, limits assumed, looked up): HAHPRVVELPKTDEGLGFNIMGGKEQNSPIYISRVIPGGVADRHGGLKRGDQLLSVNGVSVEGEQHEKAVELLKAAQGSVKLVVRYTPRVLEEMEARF

T4: PTPN13_1, Q12923
T4 sequence (Q12923 1088-1188, limits assumed, looked up): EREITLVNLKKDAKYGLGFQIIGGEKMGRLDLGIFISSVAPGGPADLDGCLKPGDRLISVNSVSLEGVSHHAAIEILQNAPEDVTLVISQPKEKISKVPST

T5: LIN7A, O14910
T5 sequence (O14910 103-200, limits assumed, looked up): T3 sequence (Q9HAP6 88-185, limits assumed, looked up) with A2S, I20V, V35I, D42E, Q65H, Q77K, G78D, R89K

T6: PCLO, Q9Y6V0
T6 sequence (Q9Y6V0 4491-4600, limits assumed, looked up): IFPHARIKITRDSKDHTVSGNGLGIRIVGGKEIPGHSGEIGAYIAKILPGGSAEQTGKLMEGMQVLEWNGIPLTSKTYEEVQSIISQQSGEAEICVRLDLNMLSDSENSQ

T7: TIAM2, Q8IVF5
T7 sequence (Q8IVF5 885-986, limits assumed, looked up): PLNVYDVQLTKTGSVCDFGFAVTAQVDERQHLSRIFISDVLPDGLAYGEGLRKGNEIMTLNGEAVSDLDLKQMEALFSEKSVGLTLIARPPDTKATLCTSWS

T8: APBA2_2, Q99767
T8 sequence (Q99767 654-744, limits assumed, looked up): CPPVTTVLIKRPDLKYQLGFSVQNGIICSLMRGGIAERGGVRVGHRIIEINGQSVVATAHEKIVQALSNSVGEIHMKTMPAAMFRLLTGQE

T9: FRMPD1, Q5SYB0
T9 sequence (Q5SYB0 52-145, limits assumed, looked up): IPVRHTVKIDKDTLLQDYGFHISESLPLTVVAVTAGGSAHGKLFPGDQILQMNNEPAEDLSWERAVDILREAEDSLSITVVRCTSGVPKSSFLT

T10: PDZD7_3, Q9H5P4
T10 sequence (Q9H5P4 857-944, limits assumed, looked up): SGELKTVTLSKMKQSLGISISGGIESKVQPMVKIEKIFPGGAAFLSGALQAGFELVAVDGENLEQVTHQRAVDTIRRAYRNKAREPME


How the values were obtained:
Assay in all cases: holdup assay
Parameters in all cases: key: below the threshold = too weak to quantify, mostly under pKd 3.1 to 4
Conditions in all cases: plain residues with an end cap or a label only (N-terminal biotin on a linker: ado-ado)
FRMPD4, Q14CM0 = molecular target: FRMPD4, Q14CM0
GRIP1_4, Q9Y3R0 = molecular target: T1, GRIP1_4, Q9Y3R0
GRIP1_7, Q9Y3R0 = molecular target: T2, GRIP1_7, Q9Y3R0
LIN7B, Q9HAP6 = molecular target: T3, LIN7B, Q9HAP6
MAST1, Q9Y2H9 = molecular target: MAST1, Q9Y2H9
PTPN13_1, Q12923 = molecular target: T4, PTPN13_1, Q12923
LIN7A, O14910 = molecular target: T5, LIN7A, O14910
PCLO, Q9Y6V0 = molecular target: T6, PCLO, Q9Y6V0
PDZRN4_1, Q6ZMN7 = molecular target: PDZRN4_1, Q6ZMN7
SCRIB_1, Q14160 = molecular target: SCRIB_1, Q14160
TJP1_2, Q07157 = molecular target: TJP1_2, Q07157
TIAM2, Q8IVF5 = molecular target: T7, TIAM2, Q8IVF5
LNX1_1, Q8TBB1 = molecular target: LNX1_1, Q8TBB1
GRID2IP_1, A4D2P6 = molecular target: GRID2IP_1, A4D2P6
IL16_1, Q14005 = molecular target: IL16_1, Q14005
APBA2_2, Q99767 = molecular target: T8, APBA2_2, Q99767
GRID2IP_2, A4D2P6 = molecular target: GRID2IP_2, A4D2P6
DLG4_2, P78352 = molecular target: DLG4_2, P78352
FRMPD1, Q5SYB0 = molecular target: T9, FRMPD1, Q5SYB0
MAGI2_4, Q86UL8 = molecular target: MAGI2_4, Q86UL8
Inadl_5, Q8NI35 = molecular target: Inadl_5, Q8NI35
LNX1_3, Q8TBB1 = molecular target: LNX1_3, Q8TBB1
DLG2_3, Q15700 = molecular target: DLG2_3, Q15700
PDZD7_3, Q9H5P4 = molecular target: T10, PDZD7_3, Q9H5P4
FRMPD3, Q5JV73 = molecular target: FRMPD3, Q5JV73
MAGI2_3, Q86UL8 = molecular target: MAGI2_3, Q86UL8
MAGI2_6, Q86UL8 = molecular target: MAGI2_6, Q86UL8
MAGI2_6, Q86UL8, sequence (Q86UL8 1141-1229): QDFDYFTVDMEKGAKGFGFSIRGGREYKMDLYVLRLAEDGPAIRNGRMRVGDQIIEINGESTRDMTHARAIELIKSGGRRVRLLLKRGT

FRMPD4, Q14CM0, sequence (Q14CM0 67-160): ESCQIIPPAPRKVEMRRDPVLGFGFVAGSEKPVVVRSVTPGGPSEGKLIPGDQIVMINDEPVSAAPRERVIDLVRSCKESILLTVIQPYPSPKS
GRID2IP_1, A4D2P6, sequence (A4D2P6 1-87): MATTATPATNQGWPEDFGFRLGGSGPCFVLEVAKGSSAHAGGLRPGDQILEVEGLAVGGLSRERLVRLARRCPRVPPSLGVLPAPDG
DLG4_2, P78352, sequence (P78352 155-259): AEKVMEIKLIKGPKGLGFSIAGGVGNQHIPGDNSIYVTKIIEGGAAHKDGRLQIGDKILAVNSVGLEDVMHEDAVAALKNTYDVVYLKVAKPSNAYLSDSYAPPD
LNX1_3, Q8TBB1, sequence (Q8TBB1 500-596): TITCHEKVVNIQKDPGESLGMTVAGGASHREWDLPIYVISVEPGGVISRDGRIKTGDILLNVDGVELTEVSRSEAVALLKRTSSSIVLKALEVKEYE
MAGI2_4, Q86UL8, sequence (Q86UL8 772-865): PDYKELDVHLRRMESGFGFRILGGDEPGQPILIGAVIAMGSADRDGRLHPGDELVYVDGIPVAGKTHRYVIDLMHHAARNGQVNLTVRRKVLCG
PDZRN4_1, Q6ZMN7, sequence (Q6ZMN7 213-318): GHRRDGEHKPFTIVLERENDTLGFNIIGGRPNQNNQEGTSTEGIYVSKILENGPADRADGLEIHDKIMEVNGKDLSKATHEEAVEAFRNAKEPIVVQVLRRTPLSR
FRMPD3, Q5JV73, sequence (Q5JV73 12-100): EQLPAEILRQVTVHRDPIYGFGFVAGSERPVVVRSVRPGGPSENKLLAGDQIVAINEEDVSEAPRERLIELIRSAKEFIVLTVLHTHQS
TJP1_2, Q07157, sequence (Q07157 181-274): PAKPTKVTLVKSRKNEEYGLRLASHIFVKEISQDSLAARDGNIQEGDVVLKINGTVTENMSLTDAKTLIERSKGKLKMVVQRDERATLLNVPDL
MAST1, Q9Y2H9, sequence (Q9Y2H9 962-1065): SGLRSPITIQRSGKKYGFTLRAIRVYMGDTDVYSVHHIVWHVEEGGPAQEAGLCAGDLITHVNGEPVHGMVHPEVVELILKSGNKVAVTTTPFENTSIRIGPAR
SCRIB_1, Q14160, sequence (Q14160 718-814): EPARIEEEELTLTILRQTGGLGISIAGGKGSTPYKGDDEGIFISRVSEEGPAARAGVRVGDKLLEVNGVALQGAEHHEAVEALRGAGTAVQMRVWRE
MAGI2_3, Q86UL8, sequence (Q86UL8 600-682): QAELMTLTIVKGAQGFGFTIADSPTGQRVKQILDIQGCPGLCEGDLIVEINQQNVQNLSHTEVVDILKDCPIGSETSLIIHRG
GRID2IP_2, A4D2P6, sequence (A4D2P6 272-370): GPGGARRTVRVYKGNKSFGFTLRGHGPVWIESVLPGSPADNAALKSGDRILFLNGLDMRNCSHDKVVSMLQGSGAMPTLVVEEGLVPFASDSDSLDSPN
Inadl_5, Q8NI35, sequence (Q8NI35 673-780): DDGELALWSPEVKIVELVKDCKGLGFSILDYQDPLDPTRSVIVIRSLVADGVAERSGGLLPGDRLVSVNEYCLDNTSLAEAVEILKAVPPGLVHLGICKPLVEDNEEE
IL16_1, Q14005, sequence (Q14005 210-306): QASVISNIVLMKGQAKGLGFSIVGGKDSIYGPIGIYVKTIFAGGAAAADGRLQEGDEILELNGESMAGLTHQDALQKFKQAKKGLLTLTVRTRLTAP
LNX1_1, Q8TBB1, sequence (Q8TBB1 261-371): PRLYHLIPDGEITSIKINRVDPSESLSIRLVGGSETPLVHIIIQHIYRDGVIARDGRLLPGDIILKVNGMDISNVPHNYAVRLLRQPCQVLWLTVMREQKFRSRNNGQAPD

Binder	pKd (FRMPD4, Q14CM0)	pKd (GRIP1_4, Q9Y3R0)	pKd (GRIP1_7, Q9Y3R0)	pKd (LIN7B, Q9HAP6)	pKd (MAST1, Q9Y2H9)	pKd (PTPN13_1, Q12923)	pKd (LIN7A, O14910)	pKd (PCLO, Q9Y6V0)	pKd (PDZRN4_1, Q6ZMN7)	pKd (SCRIB_1, Q14160)	pKd (TJP1_2, Q07157)	pKd (TIAM2, Q8IVF5)	pKd (LNX1_1, Q8TBB1)	pKd (GRID2IP_1, A4D2P6)	pKd (IL16_1, Q14005)	pKd (APBA2_2, Q99767)	pKd (GRID2IP_2, A4D2P6)	pKd (DLG4_2, P78352)	pKd (FRMPD1, Q5SYB0)	pKd (MAGI2_4, Q86UL8)	further results
QLSFNTDTLC [ABCA2, Q9BZC7]	4.03	below the threshold	below the threshold	3.66	4.16	below the threshold	below the threshold	below the threshold	below the threshold	below the threshold	below the threshold	4.13	below the threshold	below the threshold	3.58	below the threshold	below the threshold	3.61	below the threshold	4.17	pKd (Inadl_5, Q8NI35): below the threshold; pKd (LNX1_3, Q8TBB1): below the threshold; pKd (DLG2_3, Q15700): 3.73; pKd (PDZD7_3, Q9H5P4): below the threshold; pKd (FRMPD3, Q5JV73): below the threshold; pKd (MAGI2_3, Q86UL8): below the threshold; pKd (MAGI2_6, Q86UL8): below the threshold
PYPTADHMLA [JUP, P14923]	below the threshold	below the threshold	below the threshold	3.6	below the threshold	below the threshold	below the threshold	below the threshold	below the threshold	below the threshold	below the threshold	3.92	below the threshold	below the threshold	below the threshold	below the threshold	below the threshold	below the threshold	below the threshold	below the threshold	pKd (Inadl_5, Q8NI35): below the threshold; pKd (LNX1_3, Q8TBB1): below the threshold; pKd (DLG2_3, Q15700): 3.77; pKd (PDZD7_3, Q9H5P4): below the threshold; pKd (FRMPD3, Q5JV73): below the threshold; pKd (MAGI2_3, Q86UL8): below the threshold; pKd (MAGI2_6, Q86UL8): below the threshold
TGLWKHETTV [ADGRA3, Q8IWK6]	below the threshold	below the threshold	below the threshold	4.04	4.78	below the threshold	4.19	below the threshold	4.56	4.74	below the threshold	below the threshold	3.78	below the threshold	4.09	below the threshold	below the threshold	5.41	below the threshold	4.77	pKd (Inadl_5, Q8NI35): below the threshold; pKd (LNX1_3, Q8TBB1): below the threshold; pKd (DLG2_3, Q15700): 4.86; pKd (PDZD7_3, Q9H5P4): 4.99; pKd (FRMPD3, Q5JV73): below the threshold; pKd (MAGI2_3, Q86UL8): 4.02; pKd (MAGI2_6, Q86UL8): 3.86

Further lines, with some results ahead:

pKd (FRMPD4, Q14CM0)	pKd (GRIP1_4, Q9Y3R0)	pKd (GRIP1_7, Q9Y3R0)	pKd (LIN7B, Q9HAP6)	pKd (MAST1, Q9Y2H9)	pKd (PTPN13_1, Q12923)	pKd (LIN7A, O14910)	pKd (PCLO, Q9Y6V0)	pKd (PDZRN4_1, Q6ZMN7)	pKd (SCRIB_1, Q14160)	pKd (TJP1_2, Q07157)	pKd (TIAM2, Q8IVF5)	pKd (LNX1_1, Q8TBB1)	pKd (GRID2IP_1, A4D2P6)	pKd (IL16_1, Q14005)	pKd (APBA2_2, Q99767)	pKd (GRID2IP_2, A4D2P6)	pKd (DLG4_2, P78352)	pKd (FRMPD1, Q5SYB0)	pKd (MAGI2_4, Q86UL8)	Binder	further results
3.7	below the threshold	below the threshold	3.53	below the threshold	below the threshold	below the threshold	below the threshold	below the threshold	below the threshold	below the threshold	4.34	below the threshold	below the threshold	below the threshold	below the threshold	below the threshold	below the threshold	below the threshold	below the threshold	QKAPTKEFYA [SDC2, P34741]	pKd (Inadl_5, Q8NI35): below the threshold; pKd (LNX1_3, Q8TBB1): below the threshold; pKd (DLG2_3, Q15700): 3.83; pKd (PDZD7_3, Q9H5P4): below the threshold; pKd (FRMPD3, Q5JV73): 3.89; pKd (MAGI2_3, Q86UL8): below the threshold; pKd (MAGI2_6, Q86UL8): below the threshold
below the threshold	below the threshold	below the threshold	3.92	4.21	below the threshold	below the threshold	below the threshold	below the threshold	below the threshold	below the threshold	4.13	below the threshold	below the threshold	below the threshold	below the threshold	below the threshold	below the threshold	below the threshold	3.62	EKCGKEFSEF [PRKACA, P17612]	pKd (Inadl_5, Q8NI35): below the threshold; pKd (LNX1_3, Q8TBB1): below the threshold; pKd (DLG2_3, Q15700): 3.74; pKd (PDZD7_3, Q9H5P4): below the threshold; pKd (FRMPD3, Q5JV73): below the threshold; pKd (MAGI2_3, Q86UL8): below the threshold; pKd (MAGI2_6, Q86UL8): below the threshold
